Data published in publication PMC10397247.

What was measured:
Assay in all cases: two-hybrid library CCNG1;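 also: natural log of median RNA to DNA barcode read ratio; higher means stronger binding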
4H491-bN = target: T1, 4H491-bN
T1 chain: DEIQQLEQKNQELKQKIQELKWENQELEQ

4H342-bN = target: T2, 4H342-bN
T2 chain: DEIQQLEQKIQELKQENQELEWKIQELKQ

4H2944-bN = target: T3, 4H2944-bN
T3 chain: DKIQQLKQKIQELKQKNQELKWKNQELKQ

4H48-bN = target: T4, 4H48-bN
T4 chain: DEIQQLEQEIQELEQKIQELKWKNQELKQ

4H3601-bH = target: T5, 4H3601-bH
T5 chain: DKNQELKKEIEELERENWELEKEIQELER

4H3907-bH = target: T6, 4H3907-bH
T6 chain: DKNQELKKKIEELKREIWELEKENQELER

4H3592-bH = target: T7, 4H3592-bH
T7 chain: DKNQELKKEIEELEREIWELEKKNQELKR

4H4038-bH = target: T8, 4H4038-bH
T8 chain: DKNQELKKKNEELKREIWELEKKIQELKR

4H953-bA = target: T9, 4H953-bA
T9 chain: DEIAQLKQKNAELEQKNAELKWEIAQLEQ

4H968-bA = target: T10, 4H968-bA
T10 chain: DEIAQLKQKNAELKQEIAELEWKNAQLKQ

4H918-bA = target: T11, 4H918-bA
T11 chain: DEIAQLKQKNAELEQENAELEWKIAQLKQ

4H855-bA = target: T12, 4H855-bA
T12 chain: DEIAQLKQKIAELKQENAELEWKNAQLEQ

O11-bA = target: T13, O11-bA
T13 chain: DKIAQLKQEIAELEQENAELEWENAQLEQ

Question: Which interaction score (4H491-bN) does the source give for DKIQQLKQKIQELKQKNQELKWKNQELKQ [4H2944-bN] here?
Answer: Its interaction score is -0.954.

Question: And the interaction score (4H342-bN)?
Answer: Its interaction score is -0.943.

Question: And the interaction score (4H2944-bN)?
Answer: Its interaction score is -0.735.

Question: What about the interaction score (4H48-bN) of the same binder?
Answer: Its interaction score is -0.0947.

Question: With DKNQELKKEIEELEREIWELEKKNQELKR [4H3592-bH] as the binder, how does the interaction score (4H3601-bH) read?
Answer: The interaction score was -0.0581.

Question: And the interaction score (4H3907-bH)?
Answer: The interaction score was 1.02.

Question: And the interaction score (4H3592-bH)?
Answer: The interaction score was 0.863.

Question: And the interaction score (4H4038-bH)?
Answer: The interaction score was -0.403.

Question: What does the source list for DEIAQLKQKIAELKQENAELEWKNAQLEQ [4H855-bA]?
Answer: interaction score (4H953-bA): -1.71; interaction score (4H968-bA): -0.685; interaction score (4H918-bA): -1.16; interaction score (4H855-bA): -0.844; interaction score (O11-bA): -3.09
